From patent US20150344570A1 (published 2015)

T1: FcγRIIb (human, UniProt P31994 43-217)
T1 construct: extracellular domain; Soluble extracellular domain with C-terminal His tag, used as analyte in Biacore; also called FcgRIIb; 2b; not shown: His tag attached to the C terminus
T1 sequence (looked up): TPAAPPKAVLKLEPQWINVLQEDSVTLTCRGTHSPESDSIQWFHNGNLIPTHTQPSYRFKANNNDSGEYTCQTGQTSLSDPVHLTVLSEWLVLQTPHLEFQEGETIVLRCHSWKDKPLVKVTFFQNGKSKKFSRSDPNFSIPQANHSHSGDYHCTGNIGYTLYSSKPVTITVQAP


Columns and labels:
FcγRIa [1] = molecular target: T2, FcγRIa (human, UniProt P12314 16-292); experiment: SPR (Biacore); He/Con_1a divided by He/Con_2b (binding to FcγRIa against binding to FcγRIIb)
T2 construct: extracellular domain; Soluble extracellular domain with C-terminal His tag, used as analyte in Biacore; also called FcgRI; 1a; not shown: His tag attached to the C terminus
Procedure: The heterodimerized antibodies He Abs in which one of the H chains was introduced with an alteration were assayed for their binding activities to each activating FcγR and inhibitory FcγR according to the method described in Example 4. […] The activating FcγRs in FIGS. 26, 27, 28, and 29 are FcγRIa, FcγRIIa (R), FcγRIIa (H), and FcγRIIIa, respectively.
(§1) Analysis of interaction between objective antibody and the FcγR was carried out using Biacore T100 (GE Healthcare). HBS-EP+ (GE Healthcare) was used as the running buffer, and the measurement temperature was set to 25° C. Chips produced by immobilizing the antigen peptide by the amine coupling method to a Series S Sencor Chip CM5 (GE Healthcare), or alternatively, chips produced by allowing preliminarily biotinylated antigen peptides to interact with and immobilize onto a Series S Sensor Chip SA (certified) (GE Healthcare) were used. Antibodies of interest were captured onto an antigen peptide-immobilized chip, and allowed to interact to each FcγR diluted with running buffer. To regenerate and repeatedly use the chip, the antibodies captured on the chip were washed off by reacting 10 mM glycine-HCl, pH 1.5.
T2 sequence (P12314 16-292): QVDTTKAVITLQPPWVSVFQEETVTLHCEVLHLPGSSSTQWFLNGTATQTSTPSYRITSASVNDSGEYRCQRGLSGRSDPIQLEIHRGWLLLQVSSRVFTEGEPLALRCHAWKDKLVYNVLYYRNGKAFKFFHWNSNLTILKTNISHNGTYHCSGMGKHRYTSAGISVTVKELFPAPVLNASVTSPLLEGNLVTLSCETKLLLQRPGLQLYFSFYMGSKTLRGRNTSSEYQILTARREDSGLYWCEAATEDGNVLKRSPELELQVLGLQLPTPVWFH

FcγRIa [2] = molecular target: T2, FcγRIa; experiment: SPR (Biacore), antibody captured, FcγR as analyte; relative to GpH7-A5/GpH7-B3/GpL16-k0 = 100
FcγRIIb = molecular target: T1, FcγRIIb; experiment: as above
FcγRIa [3] = molecular target: T3, FcγRIa (human, UniProt P12314 16-292); experiment: SPR (Biacore), antibody captured on antigen-peptide chip, FcγRIa as analyte; binding activity relative to control GpH7-B3/GpL16-k0 (HoCon Ab) x100
T3 construct: extracellular domain; Soluble extracellular domain with C-terminal His tag, expressed in FreeStyle293 cells; analyte in Biacore; also called FcgRI; CD64; not shown: His tag attached to the C terminus
Procedure: as §1
T3 sequence (P12314 16-292): as above

Row | Binder | He_1a/2b (Ia/IIb) (FcγRIa [1]) | He/Con_1a (FcγRIa [2]) | He/Con_2b (FcγRIIb) | Ho/Con_1a (FcγRIa [3])
1 | GpH7-A5/GpH7-B3 variant P238_15Y/GpL16-k0 (antibody, human IgG1, kappa, Heterodimerized anti-glypican-3 IgG1; alteration in the GpH7-B3 chain only; also called He Ab) heavy 1: not shown heavy 2: not shown light: DIVMTQSPLSLPVTPGEPASISCQASESLVHSNRNTYLHWYLQKPGQSPQLLIYKVSNRFSGVPDRFSGSGSGTDFTLKISRVEAEDVGVYYCSQNTHVPPTFGQGTKVEIERTVAAPSVFIFPPSDEQLKSGTASVVCLLNNFYPREAKVQWKVDNALQSGNSQESVTEQDSKDSTYSLSSTLTLSKADYEKHKVYACEVTHQGLSSPVTKSFNRGEC | 0.46 ratio | 101 % of control (=100) | 218 % of control (=100) | 
2 | GpH7-B3 variant Y300_01G/GpL16-k0 (homodimerized antibody, Ho Ab) (antibody, human IgG1, kappa, Anti-glypican-3 IgG1 (G1d with K439E); same alteration in both H chains) heavy: not shown light: DIVMTQSPLSLPVTPGEPASISCQASESLVHSNRNTYLHWYLQKPGQSPQLLIYKVSNRFSGVPDRFSGSGSGTDFTLKISRVEAEDVGVYYCSQNTHVPPTFGQGTKVEIERTVAAPSVFIFPPSDEQLKSGTASVVCLLNNFYPREAKVQWKVDNALQSGNSQESVTEQDSKDSTYSLSSTLTLSKADYEKHKVYACEVTHQGLSSPVTKSFNRGEC |  |  |  | 109 % of control (=100)
3 | GpH7-A5/GpH7-B3 variant S239_08L/GpL16-k0 (antibody, human IgG1, kappa, Heterodimerized anti-glypican-3 IgG1; alteration in the GpH7-B3 chain only; also called He Ab) heavy 1: not shown heavy 2: not shown light: DIVMTQSPLSLPVTPGEPASISCQASESLVHSNRNTYLHWYLQKPGQSPQLLIYKVSNRFSGVPDRFSGSGSGTDFTLKISRVEAEDVGVYYCSQNTHVPPTFGQGTKVEIERTVAAPSVFIFPPSDEQLKSGTASVVCLLNNFYPREAKVQWKVDNALQSGNSQESVTEQDSKDSTYSLSSTLTLSKADYEKHKVYACEVTHQGLSSPVTKSFNRGEC | 0.71 ratio | 99.8 % of control (=100) | 140 % of control (=100) | 
4 | GpH7-A5/GpH7-B3 variant S239_10E/GpL16-k0 (antibody, human IgG1, kappa, Heterodimerized anti-glypican-3 IgG1; alteration in the GpH7-B3 chain only; also called He Ab) heavy 1: not shown heavy 2: not shown light: DIVMTQSPLSLPVTPGEPASISCQASESLVHSNRNTYLHWYLQKPGQSPQLLIYKVSNRFSGVPDRFSGSGSGTDFTLKISRVEAEDVGVYYCSQNTHVPPTFGQGTKVEIERTVAAPSVFIFPPSDEQLKSGTASVVCLLNNFYPREAKVQWKVDNALQSGNSQESVTEQDSKDSTYSLSSTLTLSKADYEKHKVYACEVTHQGLSSPVTKSFNRGEC | 0.58 ratio | 105 % of control (=100) | 181 % of control (=100) | 
5 | GpH7-A5/GpH7-B3 variant S239_01G/GpL16-k0 (antibody, human IgG1, kappa, Heterodimerized anti-glypican-3 IgG1; alteration in the GpH7-B3 chain only; also called He Ab) heavy 1: not shown heavy 2: not shown light: DIVMTQSPLSLPVTPGEPASISCQASESLVHSNRNTYLHWYLQKPGQSPQLLIYKVSNRFSGVPDRFSGSGSGTDFTLKISRVEAEDVGVYYCSQNTHVPPTFGQGTKVEIERTVAAPSVFIFPPSDEQLKSGTASVVCLLNNFYPREAKVQWKVDNALQSGNSQESVTEQDSKDSTYSLSSTLTLSKADYEKHKVYACEVTHQGLSSPVTKSFNRGEC | 0.7 ratio | 101 % of control (=100) | 144 % of control (=100) | 
6 | GpH7-A5/GpH7-B3 variant S239_09D/GpL16-k0 (antibody, human IgG1, kappa, Heterodimerized anti-glypican-3 IgG1; alteration in the GpH7-B3 chain only; also called He Ab) heavy 1: not shown heavy 2: not shown light: DIVMTQSPLSLPVTPGEPASISCQASESLVHSNRNTYLHWYLQKPGQSPQLLIYKVSNRFSGVPDRFSGSGSGTDFTLKISRVEAEDVGVYYCSQNTHVPPTFGQGTKVEIERTVAAPSVFIFPPSDEQLKSGTASVVCLLNNFYPREAKVQWKVDNALQSGNSQESVTEQDSKDSTYSLSSTLTLSKADYEKHKVYACEVTHQGLSSPVTKSFNRGEC | 0.49 ratio | 101 % of control (=100) | 206 % of control (=100) | 

Other lines, results leading:

Row | He_1a/2b (Ia/IIb) (FcγRIa [1]) | He/Con_1a (FcγRIa [2]) | He/Con_2b (FcγRIIb) | Ho/Con_1a (FcγRIa [3]) | Binder
7 |  |  |  | 104 % of control (=100) | GpH7-B3 variant T335_16H/GpL16-k0 (homodimerized antibody, Ho Ab) (antibody, human IgG1, kappa, Anti-glypican-3 IgG1 (G1d with K439E); same alteration in both H chains) heavy: not shown light: DIVMTQSPLSLPVTPGEPASISCQASESLVHSNRNTYLHWYLQKPGQSPQLLIYKVSNRFSGVPDRFSGSGSGTDFTLKISRVEAEDVGVYYCSQNTHVPPTFGQGTKVEIERTVAAPSVFIFPPSDEQLKSGTASVVCLLNNFYPREAKVQWKVDNALQSGNSQESVTEQDSKDSTYSLSSTLTLSKADYEKHKVYACEVTHQGLSSPVTKSFNRGEC
8 |  |  |  | 106 % of control (=100) | GpH7-B3 variant Y296_10E/GpL16-k0 (homodimerized antibody, Ho Ab) (antibody, human IgG1, kappa, Anti-glypican-3 IgG1 (G1d with K439E); same alteration in both H chains) heavy: not shown light: DIVMTQSPLSLPVTPGEPASISCQASESLVHSNRNTYLHWYLQKPGQSPQLLIYKVSNRFSGVPDRFSGSGSGTDFTLKISRVEAEDVGVYYCSQNTHVPPTFGQGTKVEIERTVAAPSVFIFPPSDEQLKSGTASVVCLLNNFYPREAKVQWKVDNALQSGNSQESVTEQDSKDSTYSLSSTLTLSKADYEKHKVYACEVTHQGLSSPVTKSFNRGEC
9 |  |  |  | 103 % of control (=100) | GpH7-B3 variant Y296_12R/GpL16-k0 (homodimerized antibody, Ho Ab) (antibody, human IgG1, kappa, Anti-glypican-3 IgG1 (G1d with K439E); same alteration in both H chains) heavy: not shown light: DIVMTQSPLSLPVTPGEPASISCQASESLVHSNRNTYLHWYLQKPGQSPQLLIYKVSNRFSGVPDRFSGSGSGTDFTLKISRVEAEDVGVYYCSQNTHVPPTFGQGTKVEIERTVAAPSVFIFPPSDEQLKSGTASVVCLLNNFYPREAKVQWKVDNALQSGNSQESVTEQDSKDSTYSLSSTLTLSKADYEKHKVYACEVTHQGLSSPVTKSFNRGEC
10 |  |  |  | 104 % of control (=100) | GpH7-B3 variant Y296_06M/GpL16-k0 (homodimerized antibody, Ho Ab) (antibody, human IgG1, kappa, Anti-glypican-3 IgG1 (G1d with K439E); same alteration in both H chains) heavy: not shown light: DIVMTQSPLSLPVTPGEPASISCQASESLVHSNRNTYLHWYLQKPGQSPQLLIYKVSNRFSGVPDRFSGSGSGTDFTLKISRVEAEDVGVYYCSQNTHVPPTFGQGTKVEIERTVAAPSVFIFPPSDEQLKSGTASVVCLLNNFYPREAKVQWKVDNALQSGNSQESVTEQDSKDSTYSLSSTLTLSKADYEKHKVYACEVTHQGLSSPVTKSFNRGEC
11 |  |  |  | 102 % of control (=100) | GpH7-B3 variant T335_18N/GpL16-k0 (homodimerized antibody, Ho Ab) (antibody, human IgG1, kappa, Anti-glypican-3 IgG1 (G1d with K439E); same alteration in both H chains) heavy: not shown light: DIVMTQSPLSLPVTPGEPASISCQASESLVHSNRNTYLHWYLQKPGQSPQLLIYKVSNRFSGVPDRFSGSGSGTDFTLKISRVEAEDVGVYYCSQNTHVPPTFGQGTKVEIERTVAAPSVFIFPPSDEQLKSGTASVVCLLNNFYPREAKVQWKVDNALQSGNSQESVTEQDSKDSTYSLSSTLTLSKADYEKHKVYACEVTHQGLSSPVTKSFNRGEC
12 |  |  |  | 104 % of control (=100) | GpH7-B3 variant T335_20W/GpL16-k0 (homodimerized antibody, Ho Ab) (antibody, human IgG1, kappa, Anti-glypican-3 IgG1 (G1d with K439E); same alteration in both H chains) heavy: not shown light: DIVMTQSPLSLPVTPGEPASISCQASESLVHSNRNTYLHWYLQKPGQSPQLLIYKVSNRFSGVPDRFSGSGSGTDFTLKISRVEAEDVGVYYCSQNTHVPPTFGQGTKVEIERTVAAPSVFIFPPSDEQLKSGTASVVCLLNNFYPREAKVQWKVDNALQSGNSQESVTEQDSKDSTYSLSSTLTLSKADYEKHKVYACEVTHQGLSSPVTKSFNRGEC
13 | 0.4 ratio | 99.7 % of control (=100) | 251 % of control (=100) |  | GpH7-A5/GpH7-B3 variant V266_06M/GpL16-k0 (antibody, human IgG1, kappa, Heterodimerized anti-glypican-3 IgG1; alteration in the GpH7-B3 chain only; also called He Ab) heavy 1: not shown heavy 2: not shown light: DIVMTQSPLSLPVTPGEPASISCQASESLVHSNRNTYLHWYLQKPGQSPQLLIYKVSNRFSGVPDRFSGSGSGTDFTLKISRVEAEDVGVYYCSQNTHVPPTFGQGTKVEIERTVAAPSVFIFPPSDEQLKSGTASVVCLLNNFYPREAKVQWKVDNALQSGNSQESVTEQDSKDSTYSLSSTLTLSKADYEKHKVYACEVTHQGLSSPVTKSFNRGEC
14 |  |  |  | 102 % of control (=100) | GpH7-B3 variant Y296_11K/GpL16-k0 (homodimerized antibody, Ho Ab) (antibody, human IgG1, kappa, Anti-glypican-3 IgG1 (G1d with K439E); same alteration in both H chains) heavy: not shown light: DIVMTQSPLSLPVTPGEPASISCQASESLVHSNRNTYLHWYLQKPGQSPQLLIYKVSNRFSGVPDRFSGSGSGTDFTLKISRVEAEDVGVYYCSQNTHVPPTFGQGTKVEIERTVAAPSVFIFPPSDEQLKSGTASVVCLLNNFYPREAKVQWKVDNALQSGNSQESVTEQDSKDSTYSLSSTLTLSKADYEKHKVYACEVTHQGLSSPVTKSFNRGEC
15 |  |  |  | 105 % of control (=100) | GpH7-B3 variant T335_19Q/GpL16-k0 (homodimerized antibody, Ho Ab) (antibody, human IgG1, kappa, Anti-glypican-3 IgG1 (G1d with K439E); same alteration in both H chains) heavy: not shown light: DIVMTQSPLSLPVTPGEPASISCQASESLVHSNRNTYLHWYLQKPGQSPQLLIYKVSNRFSGVPDRFSGSGSGTDFTLKISRVEAEDVGVYYCSQNTHVPPTFGQGTKVEIERTVAAPSVFIFPPSDEQLKSGTASVVCLLNNFYPREAKVQWKVDNALQSGNSQESVTEQDSKDSTYSLSSTLTLSKADYEKHKVYACEVTHQGLSSPVTKSFNRGEC
